In patent US11667688B2, “Glucagon derivative and a composition comprising a long acting conjugate of the same” (HANMI PHARM. CO., LTD., priority 2015, dated 2023):
Bridge positions count the residues as written; N and C are the ends. Square brackets hold non-standard residues; d marks the D form. Ends that are not written are not given here. Aib = CC(C)(N)C(=O)O

Biological target: T1, human glucagon receptors (Homo sapiens, UniProt P47871)
T1 construct: a region corresponding to Open Reading Frame (ORF) in the cDNA; expressed in transfected cells
T1 sequence (P47871 26-477): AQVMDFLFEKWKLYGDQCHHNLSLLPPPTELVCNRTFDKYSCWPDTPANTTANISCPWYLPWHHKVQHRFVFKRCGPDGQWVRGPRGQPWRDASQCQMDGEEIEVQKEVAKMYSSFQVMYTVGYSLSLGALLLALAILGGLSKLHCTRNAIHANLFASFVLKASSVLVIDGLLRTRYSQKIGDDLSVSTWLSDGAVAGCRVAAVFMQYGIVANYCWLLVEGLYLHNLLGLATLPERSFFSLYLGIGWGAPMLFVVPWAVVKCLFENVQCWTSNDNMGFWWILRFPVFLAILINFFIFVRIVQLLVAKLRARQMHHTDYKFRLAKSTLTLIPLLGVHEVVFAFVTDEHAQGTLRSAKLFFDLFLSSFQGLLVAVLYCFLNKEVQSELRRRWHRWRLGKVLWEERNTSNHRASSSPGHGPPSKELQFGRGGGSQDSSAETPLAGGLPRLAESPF
Experiment: cAMP activity of glucagon derivatives in CHO cell line transfected with human glucagon receptor (LANCE cAMP kit)
Format: cell-based
Conditions: cAMP EC50 compared with that of native glucagon; CHO cells with human glucagon receptor
Description: PCR was performed using a region corresponding to Open Reading Frame (ORF) in the cDNA (OriGene Technologies, Inc., USA) of human glucagon receptor gene as a template along with the following forward and reverse primers (SEQ ID NOS: 47 and 48, respectively), which include each of the EcoRI and XhoI restriction sites.
The PCR product was cloned into a known animal cell expression vector, x0GC/dhfr, to prepare a recombinant vector x0GC/GCGR.
CHO DG44 cell line cultured in DMEM/F12 (10% FBS) medium was transfected with the recombinant vector x0GC/GCGR using LIPOFECTAMINE®, and cultured in a selection medium containing G418 (1 mg/mL) and methotraxate (10 nM).
Specifically, the transfected cell line was subcultured 3 to 4 times a week, aliquoted into a 384-well plate in an amount of 6×10^3 cell lines/well, and cultured for 24 hours. Native glucagon and glucagon derivatives were suspended in Hank's balanced salt solution (HBSS) buffer containing 0.5 mM of 3-isobutyl-1-methylxanthine (IBMX), 0.1% bovine serum albumin (BSA), and 5 mM 4-(2-hydroxyethyl)-1-piperazineethanesulfonic acid (HEPES) with the culture cells, at concentrations of 200 nM and 1600 nM, respectively, continuously subjected into a 4-fold dilution 10 times, applied to a cAMP assay kit (LANCE cAMP 384 kit, PerkinElmer), and added to the cultured cells, and their fluorescence value was measured.

Molecule | In vitro Activity (Relative Activity of SEQ ID NO: 1, %)
YXQGTFTSDYSKYLDERRAKEFVQWLMNTC (Y[Aib]QGTFTSDYSKYLDERRAKEFVQWLMNTC; bridge 16-20) [SEQ ID NO: 37, glucagon derivative, X = Aib] | 225.5%
YXQGTFTSDYSKYLDSCDAQDFVQWLINT (Y[Aib]QGTFTSDYSKYLDSCDAQDFVQWLINT) [SEQ ID NO: 8, glucagon derivative, X = Aib] | <0.1%
YXQGTFTSDYSKYLDSRRACDFRLWLMNT (Y[Aib]QGTFTSDYSKYLDSRRACDFRLWLMNT) [SEQ ID NO: 18, glucagon derivative, X = Aib] | <0.1%
YXQGTFTSDYSKYLDSRRAQDFVQWLMNT (Aib at position 2; glucagon derivative; (2) Xaa is aminoisobutyric acid (Aib)) [SEQ ID NO: 33, glucagon derivative, X = Aib] | 108.2%
YXQGTFVSDCSKYLDERRAKDFVQWLMNT (Y[Aib]QGTFVSDCSKYLDERRAKDFVQWLMNT; bridge 16-20) [SEQ ID NO: 39, glucagon derivative, X = Aib] | 3.7%
YXQGTFVSDYSKYLDECRAKDFVQWLMNT (Y[Aib]QGTFVSDYSKYLDECRAKDFVQWLMNT; bridge 16-20) [SEQ ID NO: 27, glucagon derivative, X = Aib] | 93.6%

Other lines, results leading:

In vitro Activity (Relative Activity of SEQ ID NO: 1, %) | Molecule
<0.1% | YXQGTFTSDYSKYLDSCDADDFVVWLINT (Y[Aib]QGTFTSDYSKYLDSCDADDFVVWLINT) [SEQ ID NO: 10, glucagon derivative, X = Aib]
<0.1% | YXQGTFTSDYSKYLDSCDAQDFVVWLINT (Y[Aib]QGTFTSDYSKYLDSCDAQDFVVWLINT) [SEQ ID NO: 9, glucagon derivative, X = Aib]
75.4% | YXQGTFTSDYSKYLDSRRAQDFVQWLMNTC (Aib at position 2; glucagon derivative; (2) Xaa is aminoisobutyric acid (Aib)) [SEQ ID NO: 44, glucagon derivative, X = Aib]
40.8% | YXQGTFVSDYSKYLDERRAKDFVQWLMNTC (Y[Aib]QGTFVSDYSKYLDERRAKDFVQWLMNTC; bridge 16-20) [SEQ ID NO: 40, glucagon derivative, X = Aib]

System: not given
Experiment: not given
Conditions: when taken for one year; cited from earlier work

Molecule | weight loss
CCCCCCCCCCC[C@@H](C[C@@H]1OC(=O)[C@H]1CCCCCC)OC(=O)[C@H](CC(C)C)NC=O [ORLISTAT] | about 4 kg
